Publication PMC3469519 (Molecular Biology of the Cell, 2012)
Where two headings read alike, the source gives them in different places. Each block holds one binder with its values, some of them ahead of it.

Key:
Experiment in all cases: pull-down
full-length 6His-Bnr1 [1] = molecular target: T1, full-length 6His-Bnr1 (S. cerevisiae, UniProt P40450 1-1375)
6His-Bnr1-758 (Bnr1-N) = molecular target: T2, 6His-Bnr1-758 (Bnr1-N) (S. cerevisiae, UniProt P40450 1-758)
T2 sequence (looked up): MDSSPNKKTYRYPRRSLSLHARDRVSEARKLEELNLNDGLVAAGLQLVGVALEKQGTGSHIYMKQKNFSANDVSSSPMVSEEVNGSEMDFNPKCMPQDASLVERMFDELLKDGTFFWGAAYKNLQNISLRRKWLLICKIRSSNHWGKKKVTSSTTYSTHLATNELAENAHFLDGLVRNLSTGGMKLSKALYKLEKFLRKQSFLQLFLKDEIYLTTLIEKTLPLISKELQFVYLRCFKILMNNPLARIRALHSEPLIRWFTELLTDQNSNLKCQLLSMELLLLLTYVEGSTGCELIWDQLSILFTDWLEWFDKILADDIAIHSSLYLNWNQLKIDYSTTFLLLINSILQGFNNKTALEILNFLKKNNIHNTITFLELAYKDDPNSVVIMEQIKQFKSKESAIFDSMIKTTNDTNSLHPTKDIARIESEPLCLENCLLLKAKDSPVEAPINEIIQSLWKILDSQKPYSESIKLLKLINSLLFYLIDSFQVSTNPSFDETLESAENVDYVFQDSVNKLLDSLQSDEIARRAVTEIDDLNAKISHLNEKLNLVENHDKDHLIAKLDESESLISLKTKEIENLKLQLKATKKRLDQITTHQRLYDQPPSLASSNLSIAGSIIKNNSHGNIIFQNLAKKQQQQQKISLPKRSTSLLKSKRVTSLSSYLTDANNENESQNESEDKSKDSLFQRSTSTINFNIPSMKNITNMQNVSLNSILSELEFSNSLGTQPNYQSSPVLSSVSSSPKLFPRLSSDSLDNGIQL

full-length 6His-Bnr1 [2] = molecular target: T1, full-length 6His-Bnr1; remark: listed apart in the source

binding result (full-length 6His-Bnr1 [1]): binds | binding result (6His-Bnr1-758 (Bnr1-N)): binds
B1: pCAL-n-FLAG-Gin4-C (amino acids 540–1142) (domain or fragment, S. cerevisiae, UniProt Q12263 540-1142, looked up)
chain: SSNFATLIDEIFEYEKYEQIRKEKEELERKVREAKAREELERRRRKQEEKERARKLLEKEDLKRKQEELKKQIEIDISDLEQELSKHKEEKLDGNIRSISAPMENEEKNINHLEVDIDNILRRRNFSLQTRPVSRLDPGIMFSSPTEEVSPVEPKRTENERLTTEKKILETIRRSKFLGSSFNIDKELKLSKMEYPSIIAPQRLSEERVVSDSNDGYESLILPKDGNGVSQLKDSTATTAPVSDGRLRKISEIRVPQFTRKSRHFSESNKRLSVLSMYSTKESFTNLVDILKNGNLDVNNQQSQRIPTPRSADDSEFLFETVNEEAEYTGNSSNDERLYDVGDSTIKDKSALKLNFADRFNGSNEAKQTDNLHLPILPPLNGDNELRKQNSQEGDQAHPKIKSMIPESGSSSHTEKEEENEEKEEKKPEQHKQEEDQEKREKVVDDMEPPLNKSVQKIREKNAGSQAKDHSKDHLKEHKQDKNTAIGNGSFFRKFSKSSDKTMELYAKISAKQLFNGLEKLLRGWTQYGLKNIKSHPNNLTLTGKLSSDNIFSLRSTLFEVNIYPRGKMSVVQFKKVSGSFKAVKKLVNEVENVLNKEGVLQK

binding result (full-length 6His-Bnr1 [2]): binds
B2: full-length GST-Gin4 (enzyme, S. cerevisiae, UniProt Q12263 1-1142, looked up)
chain: MAINGNSIPAIKDNTIGPWKLGETLGLGSTGKVQLARNGSTGQEAAVKVISKAVFNTGNVSGTSIVGSTTPDALPYGIEREIIIMKLLNHPNVLRLYDVWETNTDLYLVLEYAEKGELFNLLVERGPLPEHEAIRFFRQIIIGVSYCHALGIVHRDLKPENLLLDHKYNIKIADFGMAALETEGKLLETSCGSPHYAAPEIVSGIPYQGFASDVWSCGVILFALLTGRLPFDEEDGNIRTLLLKVQKGEFEMPSDDEISREAQDLIRKILTVDPERRIKTRDILKHPLLQKYPSIRDSKSIRGLPREDTYLTPLSESNSSIDATILQNLVILWHGRDPEGIKEKLREPGANAEKTLYALLYRFKCDTQKELIKQQQVKKRQSISSVSVSPSKKVSTTPQRRRNRESLISVTSSRKKPISFNKFTASSASSSNLTTPGSSKRLSKNFSSKKKLSTIVNQSSPTPASRNKRASVINVEKNQKRASIFSTTKKNKRSSRSIKRMSLIPSMKRESVTTKLMSTYAKLAEDDDWEYIEKETKRTSSNFATLIDEIFEYEKYEQIRKEKEELERKVREAKAREELERRRRKQEEKERARKLLEKEDLKRKQEELKKQIEIDISDLEQELSKHKEEKLDGNIRSISAPMENEEKNINHLEVDIDNILRRRNFSLQTRPVSRLDPGIMFSSPTEEVSPVEPKRTENERLTTEKKILETIRRSKFLGSSFNIDKELKLSKMEYPSIIAPQRLSEERVVSDSNDGYESLILPKDGNGVSQLKDSTATTAPVSDGRLRKISEIRVPQFTRKSRHFSESNKRLSVLSMYSTKESFTNLVDILKNGNLDVNNQQSQRIPTPRSADDSEFLFETVNEEAEYTGNSSNDERLYDVGDSTIKDKSALKLNFADRFNGSNEAKQTDNLHLPILPPLNGDNELRKQNSQEGDQAHPKIKSMIPESGSSSHTEKEEENEEKEEKKPEQHKQEEDQEKREKVVDDMEPPLNKSVQKIREKNAGSQAKDHSKDHLKEHKQDKNTAIGNGSFFRKFSKSSDKTMELYAKISAKQLFNGLEKLLRGWTQYGLKNIKSHPNNLTLTGKLSSDNIFSLRSTLFEVNIYPRGKMSVVQFKKVSGSFKAVKKLVNEVENVLNKEGVLQK
